Measurements as given in patent US6001575.

Target: GRIP (full length, 1112 amino acids, 130 kDa protein) (rat)

GluR1 Clusters (synaptic AMPA receptor clusters in transfected spinal cord neurons) (GluR1 Clusters)	Substance
3.6	myc-tagged GluR1C (C-terminal 50 amino acids of the GluR1 subunit, transfected into neurons) (receptor)
1.2	myc-tagged GluR2C (C-terminal 50 amino acids of the GluR2 subunit, transfected into neurons) (from UniProt P19491) (receptor)
2.9	myc-tagged GluR2C Δ7 (GluR2 C-terminus lacking the last 7 amino acids, transfected into neurons) (from UniProt P19491) (receptor)
